Target: T1, octanoyl-AcpP (C8-AcpP), E. coli acyl carrier protein (E. coli, UniProt P0A6A8 2-78, octanoyl pantethenamide probe loaded (stable C8 acyl analog); uniformly 15N labeled and perdeuterated)
T1 construct: acyl carrier protein AcpP, E. coli; PDB 2FAD is heptanoyl-AcpP, used for docking only; also called 15N-C8-AcpP; source: E. coli BL21 (DE3), M9 minimal media with 15N NH4Cl and D2O, purified; made apo with P. aeruginosa ACPH, then loaded with CoaA, CoaD, CoaE and Sfp
Experiment: NMR titration; 1H-15N HSQC of 15N, perdeuterated C8-AcpP titrated with unlabeled partner, at least five points; 37 °C; 10 mM potassium phosphate pH 7.4, 0.5 mM TCEP, 0.1% NaN3; TITAN 2D lineshape analysis, flexible stoichiometry model
Conditions: both partners purified

T1 sequence (P0A6A8 2-78): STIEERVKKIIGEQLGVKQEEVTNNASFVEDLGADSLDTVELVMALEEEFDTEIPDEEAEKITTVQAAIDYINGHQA

B1: FabF, E. coli elongating ketosynthase (enzyme)
chain: SKRRVVVTGLGMLSPVGNTVESTWKALLAGQSGISLIDHFDTSAYATKFAGLVKDFNCEDIISRKEQRKMDAFIQYGIVAGVQAMQDSGLEITEENATRIGAAIGSGIGGLGLIEENHTSLMNGGPRKISPFFVPSTIVNMVAGHLTIMYGLRGPSISIATACTSGVHNIGHAARIIAYGDADVMVAGGAEKASTPLGVGGFGAARALSTRNDNPQAASRPWDKERDGFVLGDGAGMLVLEEYEHAKKRGAKIYAELVGFGMSSDAYHMTSPPENGAGAALAMANALRDAGIEASQIGYVNAHGTSTPAGDKAEAQAVKTIFGEAASRVLVSSTKSMTGHLLGAAGAVESIYSILALRDQAVPPTINLDNPDEGCDLDFVPHEARQVSGMEYTLCNSFGFGGTNGSLIFKKI
notes: ketosynthase FabF (3-oxoacyl-ACP synthase 2), E. coli; also called KS; source: E. coli BL21 (DE3), purified (Ni-IMAC, Superdex 75)
stoichiometry N: ~1

From paper PMC7966745, “Elucidation of transient protein-protein interactions within carrier protein-dependent biosynthesis” (Communications Biology, 2021)
